Laboratory results reported in patent publication US20090311283A1.

The binders below were run against HLA-A*3101 (human) (assay: competition with 125I-labelled probe peptide for purified HLA-A*3101, gel filtration; ratio to standard peptide 941.12). Settings: not given.

Binder	binding affinity ratio (IC50 of standard peptide / IC50 of test peptide)
PARDVLCLR (modifications not checked) [HBV X 11 peptide …]	0.01

Each binder was assayed against HLA-A*6801 (human) (assay: competition with 125I probe peptide on purified HLA-A*6801; relative to standard peptide 941.12). Settings: remark: other sources report otherwise.

Binder	binding affinity ratio (IC50 standard peptide / IC50 test peptide)
SAGPCALR (modifications not checked) [HBV X 65 peptide SAGPCALR]	0.036
TSAICSVVR (modifications not checked) [HBV POL 519 peptide …]	0.082

What follows are binders tested against HLA-A*0301 (human) (assay: competition with 125I probe peptide on purified HLA-A*0301; relative to standard peptide 941.12). Settings: remark: other sources report otherwise.

Binder	binding affinity ratio (IC50 standard peptide / IC50 test peptide)
SAGPCALR (modifications not checked) [HBV X 65 peptide SAGPCALR]	-0.0002
TSAICSVVR (modifications not checked) [HBV POL 519 peptide …]	0.0005

These binders were tested against HLA-A*0301 (human) (assay: competitive inhibition of 125I-labelled probe peptide binding to purified HLA, gel filtration). Settings: remark: other sources report otherwise; scale: ratio.

Binder	binding affinity ratio (relative binding to standard peptide)
WLWGMDIDPYK (modifications not checked) [HBV NUC 26 peptide …]	0.003

Same assay, conditions: scale: ratio

Binder	binding affinity ratio (relative binding to standard peptide)
WIRTPPAY (modifications not checked) [HBV NUC 125 peptide WIRTPPAY]	-0.0002
YLPLDKGIK (modifications not checked)	0.0001
YLVSFGVWIR (modifications not checked) [HBV NUC 118 peptide …]	0.0005
YLPLDKGIKPY (modifications not checked)	-0.0004
WLQFRNSK (modifications not checked) [HBV POL 314 peptide WLQFRNSK]	-0.0002
YSLNFMGY (modifications not checked) [HBV POL 580 peptide YSLNFMGY]	-0.0002

The binders below were run against HLA-A*0201 (human) (assay: not given). Settings: not given.

Binder	binding affinity ratio (IC50 of standard peptide / IC50 of test peptide)
LLDYQGML (modifications not checked) [HBV ENV 260 peptide LLDYQGML]	0.0004
LLGCAANWI (modifications not checked) [HBV POL 752 peptide …]	0.0011
WMCLRRFIIFL (modifications not checked) [HBV ENV 237 11-mer peptide …]	0.0019
YVPSALNPA (modifications not checked) [HBV POL 768 peptide …]	0.0039
LLTRILTI (modifications not checked) [HBV ENV 184 peptide LLTRILTI]	0.0026
WLSLDVSAA (modifications not checked) [HBV POL 414 9-mer peptide …]	0.0059
WLLGCAANWI (modifications not checked) [HBV POL 751 10-mer peptide …]	0.0053
LIFLLVLL (modifications not checked) [HBV ENV 254 peptide LIFLLVLL]	0.0025

These binders were tested against HLA-A*0201 (Human) (assay: not given). Settings: not given.

Binder	binding affinity ratio (IC50 of standard peptide / IC50 of test peptide) (ratio to standard peptide)	binding affinity ratio (IC50 of standard peptide / IC50 of test peptide)
NLGNLNVSI (modifications not checked) [HBV POL 42 peptide …]	0.0047	
GLSPTVWLSVI (modifications not checked) [HBV ENV 348 peptide …]		0.0036
SLNFMGYVI (modifications not checked) [HBV POL 581 9-mer …]		0.0038
VLGGCRHKL (modifications not checked) [HBV X 133 peptide …]		0.0009
GLLGFAAPFT (modifications not checked) [HBV POL 627 peptide …]		0.0049
FIIFLFIL (modifications not checked) [HBV ENV 243 FIIFLFIL]		0.0006
NLLSSNLSWL (modifications not checked) [HBV POL 406 peptide …]	0.0016	
FTGLYSSTV (modifications not checked) [HBV POL 59 …]		0.0005
FLFILLLCL (modifications not checked) [HBV ENV 246 …]		0.0002
ILLLCLIFL (modifications not checked) [HBV ENV 249 peptide …]		0.0015
FTSAICSVV (modifications not checked) [HBV POL 518 …]		0.009
IVGLLGFAA (modifications not checked) [HBV POL 625 peptide …]		0.0009
LVSFGVWI (modifications not checked) [HBV NUC 119 peptide LVSFGVWI]	0.0004	
SVRFSWLSLL (modifications not checked) [HBV ENV 330 peptide …]		0.0004
FLVDKNPHNT (modifications not checked) [HBV POL 363 …]		0.0012
GVWIRTPPA (modifications not checked) [HBV NUC 123 peptide …]		0.003
GLSPTVWL (modifications not checked) [HBV ENV 348 peptide GLSPTVWL]		0.0036
STLPETTVV (modifications not checked) [HBV NUC 141 peptide …]		0.0019
FVLGGCRHKL (modifications not checked) [HBV X 132 …]		0.003
NLNVSIPWT (modifications not checked) [HBV POL 45 peptide …]	0.0005	

Same assay, conditions: remark: other sources report otherwise

Binder	binding affinity ratio (IC50 of standard peptide / IC50 of test peptide)
VLHKRTLGL (modifications not checked) [HBV X 92 peptide …]	0.0012
RVTGGVFLV (modifications not checked) [HBV POL 357 9-mer …]	0.0041
VLCLRPVGA (modifications not checked) [HBV X 15 peptide …]	0.0014

What follows are binders tested against HLA-A*1101 (human) (assay: not given). Settings: remark: other sources report otherwise.

Binder	binding affinity ratio (IC50 standard peptide / IC50 test peptide)
SAGPCALR (modifications not checked) [HBV X 65 peptide SAGPCALR]	0.002

Each binder was assayed against HLA-A*3301 (human) (assay: not given). Settings: not given.

Binder	binding affinity ratio (IC50 of standard peptide / IC50 of test peptide)
PARDVLCLR (modifications not checked) [HBV X 11 peptide …]	0.018

Same assay, conditions: remark: other sources report otherwise

Binder	binding affinity ratio (IC50 standard peptide / IC50 test peptide)
TSAICSVVR (modifications not checked) [HBV POL 519 peptide …]	0.02

What follows are binders tested against HLA-A*0301 (human) (assay: competition with 125I-labelled probe peptide for purified HLA, gel filtration). Settings: not given.

Binder	binding affinity ratio (IC50 of standard peptide / IC50 of test peptide) (ratio to standard peptide)	binding affinity ratio (IC50 of standard peptide / IC50 of test peptide)
WGMDIDPYK (modifications not checked) [HBV NUC 28 peptide …]	-0.0003	
VVRRRGRSPR (modifications not checked) [… (HBV NUC 177)]		0.0027
VVRRRGRSPR (modifications not checked) [HBV NUC 177 peptide …]	0.0027	

What follows are binders tested against HLA-B*5401 (Human) in the same assay as above. Settings: not given.

Binder	binding affinity ratio (IC50 of standard peptide / IC50 of test peptide)
LPLDKGIKPYY (modifications not checked) [HBV POL 123 peptide …]	0.0001

These binders were tested against HLA-A*0201 (human) in the same assay as above. Settings: not given.

Binder	binding affinity ratio (IC50 of standard peptide / IC50 of test peptide)
PLEEELPRLA (modifications not checked)	0.0001
PLGFFPDHQL (modifications not checked) [HBV ENV 10 peptide …]	0.0002
PILSTLPET (modifications not checked)	0.0001
PILSTLPETT (modifications not checked)	0.0001
PILSTLPETTV (modifications not checked)	0.0001
PALMPLYACI (modifications not checked) [HBV POL 641 peptide …]	0.0001
PIILGFRKI (modifications not checked) [HBV POL 496 peptide …]	0.0001
PLEEELPRL (modifications not checked)	0.0003

What follows are binders tested against HLA-B*3501 (Human) in the same assay as above. Settings: not given.

Binder	binding affinity ratio (IC50 of standard peptide / IC50 of test peptide)
LPLDKGIKPYY (modifications not checked) [HBV POL 123 peptide …]	0.0009

What follows are binders tested against HLA-B*5101 (Human) in the same assay as above. Settings: not given.

Binder	binding affinity ratio (IC50 of standard peptide / IC50 of test peptide)
LPLDKGIKPYY (modifications not checked) [HBV POL 123 peptide …]	0.0001

These binders were tested against HLA-A*3101 (human) (assay: competition with 125I probe peptide on purified HLA-A*3101; relative to standard peptide 941.12). Settings: remark: other sources report otherwise.

Binder	binding affinity ratio (IC50 standard peptide / IC50 test peptide)
SAGPCALR (modifications not checked) [HBV X 65 peptide SAGPCALR]	0.0029
TSAICSVVR (modifications not checked) [HBV POL 519 peptide …]	0.06
